Measured values as given in PMC4136701, “A Conserved Cysteine Residue of Bacillus subtilis SpoIIIJ Is Important for Endospore Development” (PLoS ONE, 2014).

B2: SpoIIIJ-His6 (natural protein, Bacillus subtilis, UniProt Q01625 23-261, looked up)
chain: CSSVKEPITADSPHFWDKYVVYPLSELITYVAKLTGDNYGLSIILVTILIRLLILPLMIKQLRSSKAMQALQPEMQKLKEKYSSKDQKTQQKLQQETMALFQKHGVNPLAGCFPILIQMPILIGFYHAIMRTQAISEHSFLWFDLGEKDPYYILPIVAGVATFVQQKLMMAGNAQQNPQMAMMLWIMPIMIIVFAINFPAALSLYWVVGNLFMIAQTFLIKGPDIKKNPEPQKAGGKKK
modifications: Cys23 of the lipoprotein-type signal peptide is modified during insertion of the protein into the membrane
notes: SpoIIIJ, membrane protein insertase of the YidC/Oxa1/Alb3 family, Bacillus subtilis; calculated mass 27 kDa; Purified protein is a mixture of monomers and dimers; it also holds proteolytic products starting at L122; also called full-length mature SpoIIIJ-His6; SpoIIIJ^wt-His6; source: E. coli C43(DE3) bearing pMS266, membrane fraction solubilised with 2% DDM, purified (Ni2+-NTA); not shown: His6, …

How the values were obtained:
[1] = molecular target: SpoIIIJ^C134A-His6 (Bacillus subtilis) (UniProt Q01625); assay: SEC; Superose 12 HR 10/30; 20 mM Tris-HCl pH 7.6, 10% glycerol, 0.5 M NaCl, 0.1% DDM, 100 mM imidazole; fractions immunoblotted; peak areas estimated with ImageJ
[2] = molecular target: B2; assay: SDS-PAGE with or without reducing agent; purified protein in loading buffer with (100 mM) or without DTT; Coomassie staining or immunoblot with anti-His6; bands a and b cut out and run again; conditions: both partners purified
[3] = molecular target: the molecule itself; assay: as above
[4] = molecular target: the molecule itself; assay: SEC; Superose 12 HR 10/30; 20 mM Tris-HCl pH 7.6, 10% glycerol, 0.5 M NaCl, 0.1% DDM, 100 mM imidazole; fractions immunoblotted; peak areas estimated with ImageJ

In the case of “SpoIIIJ^C134A-His6 (from UniProt Q01625 23-261) (natural protein)”, the ratio of peak areas B (monomer size) to A (dimer size) (peak B : peak A) [1] is reported as 0.4.

B1: truncated SpoIIIJ-His6 starting at L122 (fragment "c", lacking TM1) (domain or fragment, Bacillus subtilis, UniProt Q01625 122-261, looked up)
chain: LFQKHGVNPLAGCFPILIQMPILIGFYHAIMRTQAISEHSFLWFDLGEKDPYYILPIVAGVATFVQQKLMMAGNAQQNPQMAMMLWIMPIMIIVFAINFPAALSLYWVVGNLFMIAQTFLIKGPDIKKNPEPQKAGGKKK
notes: SpoIIIJ, Bacillus subtilis; about 16 kDa product of cleavage at L122 in the cytoplasmic loop between TM1 and TM2: the rest of that loop to the end of the protein (includes TM2 with Cys134); Two species of about 15 kDa both start at L122; The cause of their different mobility is not known; also called band c; truncated SpoIIIJ monomer (lacking TM1); source: E. coli C43(DE3), proteolytic product …
B1: binds [2].

B2 was tested, and the “stoichiometry N” value [3] was 2, the “ratio of peak areas B (monomer size) to A (dimer size)” value [4] was 0.111 peak B : peak A and the “stoichiometry N” value [4] was roughly 2.
